Bridge positions count the residues as written; N and C are the ends. Square brackets hold non-standard residues; d marks the D form. Ends that are not written are not given here. I, II: the chains in the order shown. pS = N[C@@H](COP(=O)(O)O)C(=O)O
What was measured:
[1] = biological target: T1, NK2 receptor (Rattus norvegicus, UniProt P16610); test: Binding of NKA-[33P]phosphopeptide A to NK2 receptors on CHO cells (whole cell)
T1 construct: expressed in transfected cells; host or cells: CHO cells
T1 sequence (P16610 1-390): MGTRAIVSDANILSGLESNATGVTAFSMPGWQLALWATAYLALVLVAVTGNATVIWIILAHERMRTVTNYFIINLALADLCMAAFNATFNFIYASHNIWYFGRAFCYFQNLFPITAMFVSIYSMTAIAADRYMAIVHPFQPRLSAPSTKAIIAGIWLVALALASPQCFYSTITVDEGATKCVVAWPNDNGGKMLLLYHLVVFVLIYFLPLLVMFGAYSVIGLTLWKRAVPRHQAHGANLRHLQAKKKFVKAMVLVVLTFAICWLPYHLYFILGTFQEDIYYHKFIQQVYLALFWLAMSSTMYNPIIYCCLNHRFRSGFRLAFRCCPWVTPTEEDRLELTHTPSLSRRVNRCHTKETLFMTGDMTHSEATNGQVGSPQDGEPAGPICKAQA
Method: (§1) Ligand Binding Assays using Cells or Membranes. Cultured cells expressing the receptor of interest were suspended to ˜1.6×10^6 per ml in DMEM containing 0.1% FBS. 100 ul aliquots were incubated in a 96-well U-bottom polypropylene microtiter plate (assay plate) containing the indicated ligands. After the appropriate incubation time (˜1-3 hrs) cells were transferred to 1.5 ml eppendorf tubes and centrifuged at 2000 rpm (358×g) for 2 min at 6° C., supernatants aspirated and cells resuspended in 1 ml cell media and centrifuged again. The washed cells were resuspended in 20 ul of cell media and transferred to a microtiter plate, 80 ul/well of Optiphase® (Wallac, Turku, Finland) scintillation cocktail added and plates counted in a Wallac MicroBeta scintillation counter. For cells or membranes harvested by filtration, transfers from the assay plate were made directly to a Millipore 1.2 um GF/C filter plate treated or untreated with 0.3% PEI. Wells were washed with DMEM (3×100 ul) and a final wash with 100 ul water. Scintillation cocktail was added as described above.
(§2) Several ligands for commonly studied receptor families, G protein-coupled receptors (GPCRs) and cytokine receptors were labeled using the reagent of the invention. […]

[2] = biological target: T2, CXC2 receptor (Homo sapiens, UniProt P25025); test: Binding of IL8-[33P]phosphopeptide A to CXC2 receptors on CHO cells
T2 construct: expressed in transfected cells; host or cells: CHO cells
T2 sequence (P25025 1-360): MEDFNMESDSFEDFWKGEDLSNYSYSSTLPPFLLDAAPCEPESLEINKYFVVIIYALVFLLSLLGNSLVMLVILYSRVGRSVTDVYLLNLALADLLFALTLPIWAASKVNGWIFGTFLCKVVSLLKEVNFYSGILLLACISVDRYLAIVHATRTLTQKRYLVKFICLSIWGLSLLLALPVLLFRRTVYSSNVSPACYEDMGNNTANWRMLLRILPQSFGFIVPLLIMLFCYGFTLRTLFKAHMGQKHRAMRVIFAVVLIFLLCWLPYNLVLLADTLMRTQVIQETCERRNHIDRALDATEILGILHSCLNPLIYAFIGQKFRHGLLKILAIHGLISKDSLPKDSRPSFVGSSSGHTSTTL
Method: as §1, §2

[3] = biological target: T3, EpoR-Fc (Homo sapiens, UniProt P19235); test: Saturation binding of Epo-Fc-[33P]phosphopeptide A to EpoR-Fc surface-coated plates
T3 construct: containing the extracellular domain of the erythropoietin receptor fused to the Fc region of human IgG
T3 sequence (P19235 25-250 limits assumed): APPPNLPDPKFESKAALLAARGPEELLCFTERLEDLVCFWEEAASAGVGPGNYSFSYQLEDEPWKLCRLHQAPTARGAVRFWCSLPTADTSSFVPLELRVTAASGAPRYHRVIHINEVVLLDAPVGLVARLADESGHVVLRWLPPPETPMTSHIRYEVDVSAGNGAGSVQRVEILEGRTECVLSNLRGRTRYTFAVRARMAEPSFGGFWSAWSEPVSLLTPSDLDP
Method: (§3) Ligand Binding Assays in Elisa Plate Format. Costar EIA 96-well microtiter plates (assay plates) were coated with 40 ul/well of a solution of anchoring antibody (˜1-5 ug/ml) or binding protein (0.1-0.5 ug/ml) in TBS and incubated overnight at 4° C. Plates were then blocked with 80 ul/well of 1% BSA/TBS for 30 min. Following removal of the blocking protein, 40 ul/well of receptor or receptor fusion protein (0.1-0.5 ug/ml) was added to the plate and incubated at ambient temperature for one hr. if an anchoring antibody step was used. The assay plate was then washed with TBS/0.01% BSA and 40 ul/well ligand at indicated concentrations was added. The assay plate was allowed to incubate at ambient temp. for ˜1-3 hr. with shaking and then washed three times with TBS/0.01% Tween 20 using a SkanWasher300 plate washer (Skatron, Sterling, Va.). Radiolabel was detected by the addition of 80 ul/well of Optiphase (Wallac, Turku, Finland) and the assay plate counted on a Wallace MicroBeta scintillation counter.
The cytokine receptor for erythropoietin was studied as a recombinant soluble Fc-fusion protein containing the extracellular domain of the erythropoietin receptor fused to the Fc region of human IgG. The ligand for this receptor, erythropoietin (Epo) was also prepared as an Fc-fusion, specifically as a fusion to the Fc region of mouse IgG. […]

[4] = biological target: T4, ObR-Fc (Homo sapiens, UniProt P48357); test: Saturation binding of leptin-[33P]phosphopeptide A to ObR-Fc surface-coated plates; details: at the highest concentration of labeled ligand
T4 construct: containing the extracellular domain of the ObR fused to the Fc region of human IgG; purchased R&D Systems, Minneapolis, Minn
T4 sequence (P48357 22-839 limits assumed): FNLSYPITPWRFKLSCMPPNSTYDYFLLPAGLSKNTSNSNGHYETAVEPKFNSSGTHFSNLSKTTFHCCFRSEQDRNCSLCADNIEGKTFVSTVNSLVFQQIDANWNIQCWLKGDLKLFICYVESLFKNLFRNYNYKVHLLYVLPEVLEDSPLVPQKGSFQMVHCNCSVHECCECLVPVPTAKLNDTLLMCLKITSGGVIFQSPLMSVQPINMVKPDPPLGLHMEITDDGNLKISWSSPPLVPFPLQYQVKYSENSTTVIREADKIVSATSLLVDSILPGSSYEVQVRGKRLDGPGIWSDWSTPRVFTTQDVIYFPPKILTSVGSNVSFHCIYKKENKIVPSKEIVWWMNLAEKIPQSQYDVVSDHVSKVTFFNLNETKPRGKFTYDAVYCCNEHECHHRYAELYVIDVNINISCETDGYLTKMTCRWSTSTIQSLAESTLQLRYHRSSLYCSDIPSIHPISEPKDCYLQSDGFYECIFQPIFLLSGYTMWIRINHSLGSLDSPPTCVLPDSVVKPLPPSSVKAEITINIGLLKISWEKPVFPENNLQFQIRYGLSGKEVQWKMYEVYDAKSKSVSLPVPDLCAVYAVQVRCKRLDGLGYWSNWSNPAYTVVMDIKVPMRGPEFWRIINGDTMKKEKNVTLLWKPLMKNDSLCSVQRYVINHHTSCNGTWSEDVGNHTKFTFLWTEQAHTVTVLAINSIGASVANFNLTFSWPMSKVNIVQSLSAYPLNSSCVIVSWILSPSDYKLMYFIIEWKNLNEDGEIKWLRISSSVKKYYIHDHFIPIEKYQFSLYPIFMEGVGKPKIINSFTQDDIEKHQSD
Method: as §3
The cytokine receptor for leptin, the Ob receptor (ObR), was studied as a soluble Fc-fusion protein containing the extracellular domain of the ObR fused to the Fc region of human IgG (R&D Systems, Minneapolis, Minn.). The ligand for this receptor, leptin (R&D Systems) was phosphorylated according to the method of invention as described above.

[5] = biological target: NK2 receptor recombinantly expressed in CHO cells; test: saturation radioligand binding, CHO cells, 160,000 cells/assay (FIG. 9A)
[6] = saturation binding, 160,000 cells/assay

Chain of NK2 receptor recombinantly expressed in CHO cells (P21452 whole entry): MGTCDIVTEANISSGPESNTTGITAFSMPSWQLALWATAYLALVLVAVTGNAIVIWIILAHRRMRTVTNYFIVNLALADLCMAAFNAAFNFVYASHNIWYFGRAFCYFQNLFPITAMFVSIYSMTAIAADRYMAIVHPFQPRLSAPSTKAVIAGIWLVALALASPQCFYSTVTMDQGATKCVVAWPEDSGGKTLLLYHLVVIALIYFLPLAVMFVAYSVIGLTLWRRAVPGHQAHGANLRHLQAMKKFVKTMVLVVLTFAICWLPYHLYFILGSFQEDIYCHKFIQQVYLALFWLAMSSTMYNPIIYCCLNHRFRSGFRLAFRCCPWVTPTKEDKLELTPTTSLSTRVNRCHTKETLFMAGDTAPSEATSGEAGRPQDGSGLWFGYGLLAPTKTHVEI

N-α-acetyl-S-[NKA-lys2N^e-amido-(6-aminothioacetyl)hexonyl]cys-ser-arg-arg-ala-[^33PO3]phosphoser-val-tyr-amide (peptide 1 HKTRSFVGLM-NH2; peptide 2 Ac-CSRRASVY-NH2; bridge I:2-II:1; not fully specified (some residues, bridges); printed as N-α-acetyl-S-[NKA-lys2N^e-amido-(6-aminothioacetyl)hexonyl]cys-ser-arg-arg-ala-[^33PO3]phosphoser-val-tyr-amide; also: phosphoserine carries [33P]phosphate label) [NKA-[^33P]phosphopeptide A]
specific binding to its receptor ([1]; 33P-labeled ligand, FIG. 8): bound specifically | Bmax [1, 6]: 700,000 receptors/cell

N-α-acetyl-S-[IL8-amido-(6-aminothioacetyl)hexonyl]cys-ser-arg-arg-ala-[^33PO3]phosphoser-val-tyr-amide1-4 [IL8-[^33P]phosphopeptide A]
specific binding to its receptor ([2]; 33P-labeled ligand, FIG. 8): bound specifically | Bmax [2, 6]: 110,000 receptors/cell

N-α-acetyl-S-[Epo-Fc-8-amido-(6-aminothioacetyl)hexonyl]cys-ser-arg-arg-ala-[^33PO3]phosphoser-val-tyr-amide [Epo-Fc-[^33P]phosphopeptide A]
amount detected at the highest concentration of labeled ligand [3]: ~20 Fmol/well

N-α-acetyl-S-[leptin-amido-)6-aminothioacetyl)hexonyl]cys-ser-arg-arg-ala-[^33PO3]phosphoser-val-tyr-amide1-2 [leptin [^33P]phosphopeptide A]
saturation binding [4]: Binding was detected

B1: Neurokinin A-[^33PO3]peptide A conjugate (NKA-lys2N^e-[^33PO3]peptide A) (peptide)
peptide 1: HKTRSFVGLM-NH2
peptide 2: Ac-CSRRA[pS]VY-NH2
modifications: bridge I:2-II:1; not fully specified (some residues, bridges); printed as N-&agr,-acetyl-S-[NKA-lys2Ne-amido-(6-aminothioacetyl)hexonyl]cys-ser-arg-arg-ala-[33PO3]phosphoser-val-tyr-amide; also: 33P-labelled phosphate on phosphoserine of chain 2
Bmax (receptors/cell) [5]: 700000
